Data on two molecules can be found in paper PMC3314626, “Crystal Structures of the Tetratricopeptide Repeat Domains of Kinesin Light Chains: Insight into Cargo Recognition Mechanisms” (PLoS ONE, 2012).

Holding throughout (assay): ITC; peptide (1-3 mM) in the syringe injected into 60-130 uM KLC1-TPR or KLC2-TPR (or mutant) in the cell; 25 C; 20 mM Bis-Tris pH 6.5, 500 mM NaCl, 0.5 mM TCEP; one-site binding model
(Isothermal titration calorimetry measures the heat released or taken up as one component is titrated into another.)

Test [1] concerns the target KLC1-TPR N343S mutant (human) (UniProt Q07866).
Test [2] deals with KLC1-TPR N301A mutant (human) (UniProt Q07866).
Test [3] addresses KLC1 TPR domain (kinesin light chain 1 tetratricopeptide repeat domain) (human) (UniProt Q07866).

The Kd is the constant that tells how readily two partners part at equilibrium. Low readings indicate a tighter complex, high ones a looser complex. As usually defined, the stoichiometry N is a count of units in the complex or per binding partner. Consider Ac-EMDWDDSALT-OH [ALC1 peptide (alcadein-1)], for which, in test [1], the Kd stood at 44.3 µM, the dH is -1.7 kcal/mol and the stoichiometry N was determined as 2.13. Besides, in test [2], the Kd was found to be 179 µM, the dH is -1.2 kcal/mol and the stoichiometry N is 1.02. In test [3], the Kd was determined as 50.3 µM, the dH was -2.5 kcal/mol and the stoichiometry N came out at 1.85.
In test [3], Ac-EYTCPTEDIYLE-OH [JIP1 peptide (C-terminal residues of JNK-interacting protein 1)] gave a Kd of 9.4 µM, a dH of -1.52 kcal/mol and a stoichiometry N of 1.02.
